Reference: article PMC5645763

Key:
[1] = molecular target: SdKefQCTD (KTN-containing carboxy-terminal domain construct of the Shewanella denitrificans Kef potassium efflux system) (Shewanella denitrificans); assay: SEC; gel filtration (Figure S1); in solution, at the concentrations used (not given)
[2] = molecular target: SdKefQCTD (KTN-containing carboxy-terminal domain construct of the Shewanella denitrificans Kef potassium efflux system) (Shewanella denitrificans); assay: AUC; analytical ultracentrifugation (Figure S3); in solution, at the concentrations used (not given)
[3] = molecular target: SdKefQCTD (KTN-containing carboxy-terminal domain construct of the Shewanella denitrificans Kef potassium efflux system) (Shewanella denitrificans); assay: SEC-MALS; size-exclusion chromatography-multiangle laser scattering (Figure S2); in solution, at the concentrations used (not given)
[4] = molecular target: SdKefQCTD (KTN-containing carboxy-terminal domain construct of the Shewanella denitrificans Kef potassium efflux system) (Shewanella denitrificans); assay: native MS; nanoelectrospray on a QToF-2, 200 mM ammonium acetate, 7.5 uM with respect to the dimer, positive polarity; collisional activation to remove AMP

stoichiometry N [1]: 2 | stoichiometry N [2]: 2 | stoichiometry N [3]: 2
Substance: SdKefQCTD (KTN-containing carboxy-terminal domain construct of the Shewanella denitrificans Kef potassium efflux system) (domain or fragment)
stoichiometry N [4]: 2
